Test results: patent US20200024330A1

Key:
Assay in all cases: cell-based or functional assay
[1] = biological target: HIV-1 Env of isolate MG RM-A-010 (pseudovirus) (HIV-1)
[2] = biological target: HIV-1 Env of isolate APV_6 (HIV-1)
[3] = biological target: HIV-1 92BR020 envelope glycoprotein (Env) on pseudovirus (HIV-1)
[4] = biological target: HIV-1 Env of isolate 94UG103 (pseudovirus) (HIV-1)
[5] = biological target: HIV-1 Env of isolate MG RM-A-011 (pseudovirus) (HIV-1)
[6] = biological target: HIV-1 Env of isolate MGRM-D-008 (subtype D), on pseudovirus (HIV-1)
[7] = biological target: HIV-1 Env of isolate 92WR020 (pseudovirus) (HIV-1)
[8] = biological target: HIV-1 Env of isolate MGRM-D-003 (subtype D), on pseudovirus (HIV-1)
[9] = biological target: HIV-1 Env of isolate 92BR020 (HIV-1)
[10] = biological target: HIV-1 Env of isolate VLGCA1 (pseudovirus) (HIV-1)
[11] = biological target: HIV-1 Env of isolate MGRM-D-002 (subtype D), on pseudovirus (HIV-1)
[12] = biological target: HIV-1 Env of isolate 93WR029 (pseudovirus) (HIV-1)
[13] = biological target: HIV-1 Env of isolate MGRM-Chronic-B-008 (HIV-1)
[14] = biological target: HIV-1 Env of isolate 93TH305 (HIV-1)
[15] = biological target: HIV-1 Env of isolate MGRM-D-005 (subtype D), on pseudovirus (HIV-1)
[16] = biological target: HIV-1 Env of isolate MGRM-AE-001 (pseudovirus) (HIV-1)
[17] = biological target: HIV-1 Env of isolate MG RM-A-012 (pseudovirus) (HIV-1)
[18] = biological target: HIV-1 Env of isolate MGRM-Chronic-B-002 (HIV-1)
[19] = biological target: HIV-1 Env of isolate MG RM-A-007 (pseudovirus) (HIV-1)
[20] = biological target: HIV-1 Env of isolate APV_13 (HIV-1)
[21] = biological target: HIV-1 Env of isolate CMU02 (pseudovirus) (HIV-1)
[22] = biological target: HIV-1 Env of isolate MGRM-Chronic-B-003 (HIV-1)
[23] = biological target: HIV-1 Env of isolate 92RW008 (clade A), on pseudovirus (HIV-1)
[24] = biological target: HIV-1 Env of isolate MGRM-D-004 (subtype D), on pseudovirus (HIV-1)
[25] = biological target: HIV-1 Env of isolate MGRM-AE-004 (pseudovirus) (HIV-1)
[26] = biological target: HIV-1 Env of isolate MGRM-AE-002 (pseudovirus) (HIV-1)
[27] = biological target: HIV-1 Env of isolate 92RW009 (clade A), on pseudovirus (HIV-1)
[28] = biological target: HIV-1 Env of isolate MGRM-Chronic-B-001 (HIV-1)
[29] = biological target: HIV-1 Env of isolate MG RM-A-006 (pseudovirus) (HIV-1)
[30] = biological target: HIV-1 Env of isolate 98CN009 (subtype CRF07_BC), on pseudovirus (HIV-1)
[31] = biological target: HIV-1 Env of isolate 6535.3 (HIV-1)
[32] = biological target: HIV-1 Env of isolate 92UG005 (subtype D), on pseudovirus (HIV-1)
[33] = biological target: HIV-1 Env of isolate 93UG077 (pseudovirus) (HIV-1)
[34] = biological target: HIV-1 Env of isolate MGRM-AE-003 (pseudovirus) (HIV-1)
[35] = biological target: HIV-1 Env of isolate 92UG031 (pseudovirus) (HIV-1)
[36] = biological target: HIV-1 Env of isolate 92TH021 (pseudovirus) (HIV-1)
[37] = biological target: HIV-1 Env of isolate 92WR024 (pseudovirus) (HIV-1)
[38] = biological target: HIV-1 Env of isolate 94 KE 105 (pseudovirus) (HIV-1)
[39] = biological target: HIV-1 Env of isolate MGRM-AE-005 (pseudovirus) (HIV-1)
[40] = biological target: HIV-1 Env of isolate MG RM-A-009 (pseudovirus) (HIV-1)
[41] = biological target: HIV-1 Env of isolate MGRM-AE-006 (pseudovirus) (HIV-1)
[42] = biological target: HIV-1 Env of isolate 92UG037 (pseudovirus) (HIV-1)
[43] = biological target: HIV-1 Env of isolate APV_17 (HIV-1)
[44] = biological target: HIV-1 Env of isolate 92UG024 (subtype D), on pseudovirus (HIV-1)
[45] = biological target: HIV-1 Env of isolate 92WR021 (pseudovirus) (HIV-1)
[46] = biological target: HIV-1 Env of isolate 92UG001 (subtype D), on pseudovirus (HIV-1)
[47] = biological target: HIV-1 Env of isolate 92WR026 (pseudovirus) (HIV-1)
[48] = biological target: HIV-1 Env of isolate 98CN006 (subtype CRF08 BC), on pseudovirus (HIV-1)
[49] = biological target: HIV-1 Env of isolate MG RM-A-014 (pseudovirus) (HIV-1)
[50] = biological target: HIV-1 92RW020 envelope glycoprotein (Env) on pseudovirus (HIV-1)
[51] = biological target: HIV-1 Env of isolate MGRM-Chronic-B-004 (HIV-1)
[52] = biological target: HIV-1 Env of isolate 92UG046 (subtype D), on pseudovirus (HIV-1)
[53] = biological target: HIV-1 Env of isolate MG RM-A-005 (pseudovirus) (HIV-1)
[54] = biological target: HIV-1 Env of isolate CAAN.A2 (HIV-1)
[55] = biological target: HIV-1 Env of isolate MG RM-A-008 (pseudovirus) (HIV-1)
[56] = biological target: HIV-1 Env of isolate MGRM-D-001 (subtype D), on pseudovirus (HIV-1)
[57] = biological target: HIV-1 Env of isolate 92UG114 (subtype D), on pseudovirus (HIV-1)
[58] = biological target: HIV-1 Env of isolate MG RM-A-013 (pseudovirus) (HIV-1)
[59] = biological target: HIV-1 Env of isolate JRFL (HIV-1)

Sequence of 4980_N08 (PGT-143) (antibody) (VH): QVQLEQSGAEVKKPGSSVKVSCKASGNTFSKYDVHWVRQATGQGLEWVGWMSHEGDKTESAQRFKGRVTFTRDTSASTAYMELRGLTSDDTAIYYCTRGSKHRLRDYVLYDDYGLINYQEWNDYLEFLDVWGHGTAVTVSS
Sequence of 4980_N08 (PGT-143) (antibody) (VL): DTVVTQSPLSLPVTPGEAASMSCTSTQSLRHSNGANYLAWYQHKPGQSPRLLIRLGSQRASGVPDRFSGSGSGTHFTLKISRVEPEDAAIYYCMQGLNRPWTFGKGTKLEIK

Substance: 4980_N08 (PGT-143) (antibody)
- IC50 (µg/mL), pseudovirus neutralization [1]: 0.019 µg/mL
- IC50 [2]: 14 µg/mL
- IC50 (ug/ml), neutralizing activity [3]: > 10 µg/mL
- IC50 (µg/mL), pseudovirus neutralization [4]: > 50 µg/mL
- IC50 (µg/mL), pseudovirus neutralization [5]: > 50 µg/mL
- IC50, pseudovirus neutralization [6]: 0.153 µg/mL
- IC50 (µg/mL), pseudovirus neutralization [7]: > 50 µg/mL
- IC50, pseudovirus neutralization [8]: > 50 µg/mL
- IC50 [9]: 25.9 µg/mL
- IC50 (µg/mL), pseudovirus neutralization [10]: 17.4 µg/mL
- IC50, pseudovirus neutralization [11]: > 50 µg/mL
- IC50 (µg/mL), pseudovirus neutralization [12]: 0.053 µg/mL
- IC50 [13]: > 50 µg/mL
- IC50 [14]: 17.3 µg/mL
- IC50, pseudovirus neutralization [15]: 1.41 µg/mL
- IC50 (µg/mL), pseudovirus neutralization [16]: > 50 µg/mL
- IC50 (µg/mL), pseudovirus neutralization [17]: > 50 µg/mL
- IC50 [18]: > 50 µg/mL
- IC50 (µg/mL), pseudovirus neutralization [19]: > 50 µg/mL
- IC50 [20]: > 50 µg/mL
- IC50 (µg/mL), pseudovirus neutralization [21]: > 50 µg/mL
- IC50 [22]: 0.854 µg/mL
- IC50, single-round pseudovirus neutralization [23]: 0.385 µg/mL
- IC50, pseudovirus neutralization [24]: > 50 µg/mL
- IC50 (µg/mL), pseudovirus neutralization [25]: 0.002 µg/mL
- IC50 (µg/mL), pseudovirus neutralization [26]: > 50 µg/mL
- IC50, single-round pseudovirus neutralization [27]: 0.01 µg/mL
- IC50 [28]: > 50 µg/mL
- IC50 (µg/mL), pseudovirus neutralization [29]: > 50 µg/mL
- IC50, pseudovirus neutralization [30]: 10.2 µg/mL
- IC50 [31]: > 50 µg/mL
- IC50, pseudovirus neutralization [32]: > 50 µg/mL
- IC50 (µg/mL), pseudovirus neutralization [33]: > 50 µg/mL
- IC50 (µg/mL), pseudovirus neutralization [34]: > 50 µg/mL
- IC50 (µg/mL), pseudovirus neutralization [35]: 0.095 µg/mL
- IC50 (µg/mL), pseudovirus neutralization [36]: 0.003 µg/mL
- IC50 (µg/mL), pseudovirus neutralization [37]: 0.122 µg/mL
- IC50 (µg/mL), pseudovirus neutralization [38]: 0.368 µg/mL
- IC50 (µg/mL), pseudovirus neutralization [39]: > 50 µg/mL
- IC50 (µg/mL), pseudovirus neutralization [40]: 0.05 µg/mL
- IC50 (µg/mL), pseudovirus neutralization [41]: > 50 µg/mL
- IC50 (µg/mL), pseudovirus neutralization [42]: 0.854 µg/mL
- IC50 [43]: 1.11 µg/mL
- IC50, pseudovirus neutralization [44]: > 50 µg/mL
- IC50 (µg/mL), pseudovirus neutralization [45]: > 50 µg/mL
- IC50, pseudovirus neutralization [46]: > 50 µg/mL
- IC50 (µg/mL), pseudovirus neutralization [47]: 5.36 µg/mL
- IC50, pseudovirus neutralization [48]: > 50 µg/mL
- IC50 (µg/mL), pseudovirus neutralization [49]: 1.07 µg/mL
- IC50 (ug/ml), neutralizing activity [50]: > 10 µg/mL
- IC50 [51]: 0.395 µg/mL
- IC50, pseudovirus neutralization [52]: > 50 µg/mL
- IC50 (µg/mL), pseudovirus neutralization [53]: 7.48 µg/mL
- IC50 [54]: > 50 µg/mL
- IC50 (µg/mL), pseudovirus neutralization [55]: > 50 µg/mL
- IC50, pseudovirus neutralization [56]: > 50 µg/mL
- IC50, pseudovirus neutralization [57]: > 50 µg/mL
- IC50 (µg/mL), pseudovirus neutralization [58]: 9.24 µg/mL
- IC50 [59]: > 50 µg/mL
